Data taken from article PMC11127164, “Brefeldin A and M-COPA block the export of RTKs from the endoplasmic reticulum via simultaneous inactivation of ARF1, ARF4, and ARF5” (The Journal of Biological Chemistry, 2024).

T1: glutathione S-transferase-fused Golgi-localized γ-adaptin ear-containing, ARF-binding protein 3 (1–316) (UniProt Q9NZ52 1-316)
T1 construct: also called GST-GGA3; GST-GGA3(1–316); source: bought: Cytoskeleton, coated on Sepharose beads
T1 sequence (looked up): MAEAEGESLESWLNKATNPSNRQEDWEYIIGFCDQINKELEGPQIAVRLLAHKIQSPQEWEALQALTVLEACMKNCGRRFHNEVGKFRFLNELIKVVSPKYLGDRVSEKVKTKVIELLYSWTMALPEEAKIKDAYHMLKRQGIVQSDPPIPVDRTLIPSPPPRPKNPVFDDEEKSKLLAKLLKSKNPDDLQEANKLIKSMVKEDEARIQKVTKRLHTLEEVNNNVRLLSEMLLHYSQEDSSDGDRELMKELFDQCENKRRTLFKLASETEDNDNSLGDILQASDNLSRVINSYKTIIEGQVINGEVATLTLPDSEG


How the values were obtained:
[1] = biological target: T1, glutathione S-transferase-fused …; assay: pull-down; GST-GGA3(1–316)-coated Sepharose beads incubated with lysates of GIST-T1 or PC-9 cells at 4 °C for 1 h, washed once, immunoblot for ARFs; cells untreated or treated with 1 μM M-COPA or 1 μM BFA for 4 h (GIST-T1) or 200 nM M-COPA for 8 h (PC-9); conditions: one partner purified
[2] = biological target: T2, Golgi-specific BFA-resistance guanine nucleotide exchange factor 1 (human (endogenous in GIST-T1), UniProt Q92538 1-1860); assay: co-IP; endogenous GBF1 immunoprecipitated from GIST-T1 lysate (NP-40 lysis buffer, 50 mM HEPES pH 7.4) with anti-GBF1 on Dynabeads Protein G, 4 °C, 5 h, immunoblot for ARFs; cells untreated or treated with 1 μM M-COPA for 4 h; co-precipitated ARF normalised to GBF1; conditions: partners not purified
T2 construct: Golgi-specific BFA-resistance guanine nucleotide exchange factor 1 (GBF1), human, endogenous in GIST-T1 cells; Immunoprecipitated with an anti-GBF1 antibody on Dynabeads Protein G; also called GBF1; source: endogenous, GIST-T1 lysate
T2 sequence (Q92538 whole entry): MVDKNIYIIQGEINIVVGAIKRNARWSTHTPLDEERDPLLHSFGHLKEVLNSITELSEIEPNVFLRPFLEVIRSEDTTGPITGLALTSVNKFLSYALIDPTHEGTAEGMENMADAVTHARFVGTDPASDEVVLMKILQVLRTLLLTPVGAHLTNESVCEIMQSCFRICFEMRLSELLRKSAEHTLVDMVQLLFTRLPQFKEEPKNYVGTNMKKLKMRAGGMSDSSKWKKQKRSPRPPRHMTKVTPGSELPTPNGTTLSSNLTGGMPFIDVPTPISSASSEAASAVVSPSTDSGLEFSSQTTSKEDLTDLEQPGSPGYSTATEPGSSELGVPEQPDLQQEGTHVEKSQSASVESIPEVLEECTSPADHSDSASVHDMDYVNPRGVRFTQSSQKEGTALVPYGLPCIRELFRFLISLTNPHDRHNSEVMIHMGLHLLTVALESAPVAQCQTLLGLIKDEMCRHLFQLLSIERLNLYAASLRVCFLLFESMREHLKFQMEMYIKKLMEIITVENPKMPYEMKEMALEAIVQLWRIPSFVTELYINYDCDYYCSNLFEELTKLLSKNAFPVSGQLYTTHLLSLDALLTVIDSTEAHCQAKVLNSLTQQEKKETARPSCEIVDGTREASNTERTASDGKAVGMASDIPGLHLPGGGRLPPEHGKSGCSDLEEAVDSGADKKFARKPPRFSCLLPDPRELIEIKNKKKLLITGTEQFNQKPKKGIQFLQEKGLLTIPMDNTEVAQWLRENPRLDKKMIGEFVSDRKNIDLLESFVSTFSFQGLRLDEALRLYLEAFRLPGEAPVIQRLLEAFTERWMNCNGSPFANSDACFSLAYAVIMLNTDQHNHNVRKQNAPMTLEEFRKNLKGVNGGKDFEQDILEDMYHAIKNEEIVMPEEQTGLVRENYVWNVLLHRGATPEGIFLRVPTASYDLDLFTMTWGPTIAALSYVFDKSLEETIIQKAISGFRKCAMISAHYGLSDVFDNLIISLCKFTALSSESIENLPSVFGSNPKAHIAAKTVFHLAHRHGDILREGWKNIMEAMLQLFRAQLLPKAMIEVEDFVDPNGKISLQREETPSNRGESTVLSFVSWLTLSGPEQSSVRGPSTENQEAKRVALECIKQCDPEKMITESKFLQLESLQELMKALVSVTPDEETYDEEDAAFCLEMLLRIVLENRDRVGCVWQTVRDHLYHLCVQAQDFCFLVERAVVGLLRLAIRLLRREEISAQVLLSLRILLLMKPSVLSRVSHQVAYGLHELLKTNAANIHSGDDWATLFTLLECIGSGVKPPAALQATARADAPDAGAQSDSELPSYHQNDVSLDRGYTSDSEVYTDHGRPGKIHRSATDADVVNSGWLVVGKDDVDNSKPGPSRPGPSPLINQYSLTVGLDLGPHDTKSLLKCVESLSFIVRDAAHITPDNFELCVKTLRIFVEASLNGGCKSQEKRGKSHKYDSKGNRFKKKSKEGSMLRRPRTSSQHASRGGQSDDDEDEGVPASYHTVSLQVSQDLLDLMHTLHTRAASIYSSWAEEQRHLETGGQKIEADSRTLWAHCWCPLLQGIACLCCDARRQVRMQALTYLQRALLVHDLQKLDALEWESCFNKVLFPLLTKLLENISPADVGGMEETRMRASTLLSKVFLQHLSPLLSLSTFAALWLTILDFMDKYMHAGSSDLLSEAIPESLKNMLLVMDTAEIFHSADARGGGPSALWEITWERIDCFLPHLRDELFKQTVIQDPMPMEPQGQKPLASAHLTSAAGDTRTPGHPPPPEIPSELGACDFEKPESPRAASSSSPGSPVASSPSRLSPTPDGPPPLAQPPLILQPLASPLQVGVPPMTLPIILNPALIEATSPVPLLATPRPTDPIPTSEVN

level of GGA3-bound ARF after M-COPA treatment of the cells, relative to the untreated control [1]	fold increase of ARF co-immunoprecipitated with GBF1 after M-COPA treatment, relative to the untreated control [2]	Binder
< 18%	8.66 fold	ADP-ribosylation factor 5 (natural protein, human (endogenous in GIST-T1 and PC-9), UniProt P84085 1-180, looked up, ADP-ribosylation factor 5 (ARF5), human, endogenous in GIST-T1 and PC-9 cells; also called ARF5; source: endogenous, GIST-T1 and PC-9 lysate) MGLTVSALFSRIFGKKQMRILMVGLDAAGKTTILYKLKLGEIVTTIPTIGFNVETVEYKNICFTVWDVGGQDKIRPLWRHYFQNTQGLIFVVDSNDRERVQESADELQKMLQEDELRDAVLLVFANKQDMPNAMPVSELTDKLGLQHLRSRTWYVQATCATQGTGLYDGLDWLSHELSKR
< 18%	14.1 fold	ADP-ribosylation factor 4 (natural protein, human (endogenous in GIST-T1 and PC-9), UniProt P18085 1-180, looked up, ADP-ribosylation factor 4 (ARF4), human, endogenous in GIST-T1 and PC-9 cells; also called ARF4; source: endogenous, GIST-T1 and PC-9 lysate) MGLTISSLFSRLFGKKQMRILMVGLDAAGKTTILYKLKLGEIVTTIPTIGFNVETVEYKNICFTVWDVGGQDRIRPLWKHYFQNTQGLIFVVDSNDRERIQEVADELQKMLLVDELRDAVLLLFANKQDLPNAMAISEMTDKLGLQSLRNRTWYVQATCATQGTGLYEGLDWLSNELSKR
< 18%	6.89 fold	ADP-ribosylation factor 1 (natural protein, ADP-ribosylation factor 1 (ARF1), human, endogenous in GIST-T1 and PC-9 cells; also called ARF1; source: endogenous, GIST-T1 and PC-9 lysate) not shown
